Experiments:
Assay in all cases: EMSA
Conditions in all cases: tags: MBP fusion
[1] = molecular target: ZFP SBS#763 (synthetic)
Procedure, shortened: (§1)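 Purified ZFP was titrated against labeled double-stranded target (1 nM or lower, at least 10-fold below expected Kd) carrying the natural binding site with flanks. Binding buffer was 10 mM Tris pH 7.5, 100 mM KCl, 1 mM MgCl2, 0.1 mM ZnCl2, 5 mM DTT, 10% glycerol, 0.02% BSA, with equilibration for at least 45 min. Bound and free target were separated on a 10% polyacrylamide gel.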

[2] = molecular target: ZFP SBS#253 (synthetic)
Procedure, shortened: as §1

[3] = molecular target: T1, ZFP SBS#797 (synthetic)
T1 chain: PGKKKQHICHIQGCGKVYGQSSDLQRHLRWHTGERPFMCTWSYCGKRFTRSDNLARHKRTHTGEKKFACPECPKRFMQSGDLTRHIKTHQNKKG
Procedure, shortened: as §1

[4] = molecular target: ZFP SBS#764 (synthetic)
Procedure, shortened: as §1

[5] = molecular target: ZFP SBS#799 (synthetic)
Procedure, shortened: as §1

[6] = molecular target: ZFP SBS#768 (synthetic)
Procedure, shortened: as §1

[7] = molecular target: ZFP SBS#798 (synthetic, UniProt P08047)
Procedure, shortened: as §1

[8] = molecular target: ZFP SBS#767 (synthetic, UniProt P08047)
Procedure, shortened: as §1

[9] = molecular target: T2, ZFP SBS#800 (synthetic)
T2 chain: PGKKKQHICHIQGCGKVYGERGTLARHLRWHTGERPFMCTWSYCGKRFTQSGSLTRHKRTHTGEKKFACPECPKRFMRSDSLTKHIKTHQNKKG
Procedure, shortened: as §1

[10] = molecular target: T3, ZFP SBS#770 (synthetic)
T3 chain: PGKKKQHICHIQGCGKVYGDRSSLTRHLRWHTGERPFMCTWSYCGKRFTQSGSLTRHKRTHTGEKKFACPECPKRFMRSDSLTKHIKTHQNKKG
Procedure, shortened: as §1

[11] = molecular target: T4, ZFP SBS#851 (synthetic)
T4 chain: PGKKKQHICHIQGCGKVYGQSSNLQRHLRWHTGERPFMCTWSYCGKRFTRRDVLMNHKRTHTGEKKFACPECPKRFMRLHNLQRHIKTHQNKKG
Procedure, shortened: as §1

[12] = molecular target: ZFP SBS#845 (synthetic)
Procedure, shortened: as §1

[13] = molecular target: ZFP SBS#844 (synthetic)
Procedure, shortened: as §1

[14] = molecular target: T5, ZFP SBS#846 (synthetic)
T5 chain: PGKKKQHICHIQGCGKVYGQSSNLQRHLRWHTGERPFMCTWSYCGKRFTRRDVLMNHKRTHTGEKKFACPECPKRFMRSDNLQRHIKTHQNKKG
Procedure, shortened: as §1

[15] = molecular target: T6, ZFP SBS#832 (synthetic)
T6 chain: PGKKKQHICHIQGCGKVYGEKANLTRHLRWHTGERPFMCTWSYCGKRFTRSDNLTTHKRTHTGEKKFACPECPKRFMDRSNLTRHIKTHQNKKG
Procedure, shortened: as §1

[16] = molecular target: T7, ZFP SBS#833 (synthetic)
T7 chain: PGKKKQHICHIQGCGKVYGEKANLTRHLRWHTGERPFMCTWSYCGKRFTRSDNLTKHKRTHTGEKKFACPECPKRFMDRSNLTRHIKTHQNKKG
Procedure, shortened: as §1

[17] = molecular target: T8, ZFP SBS#834 (synthetic)
T8 chain: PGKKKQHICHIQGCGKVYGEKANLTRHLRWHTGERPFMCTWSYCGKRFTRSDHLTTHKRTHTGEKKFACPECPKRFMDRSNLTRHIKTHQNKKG
Procedure, shortened: as §1

[18] = molecular target: T9, ZFP SBS#849 (synthetic)
T9 chain: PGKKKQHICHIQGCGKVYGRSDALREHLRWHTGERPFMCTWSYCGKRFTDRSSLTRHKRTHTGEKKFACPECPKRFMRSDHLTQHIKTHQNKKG
Procedure, shortened: as §1

[19] = molecular target: T10, ZFP SBS#837 (synthetic)
T10 chain: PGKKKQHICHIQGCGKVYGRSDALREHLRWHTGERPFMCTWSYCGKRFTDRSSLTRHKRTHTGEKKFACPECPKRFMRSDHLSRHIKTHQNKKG
Procedure, shortened: as §1

[20] = molecular target: T11, ZFP SBS#838 (synthetic)
T11 chain: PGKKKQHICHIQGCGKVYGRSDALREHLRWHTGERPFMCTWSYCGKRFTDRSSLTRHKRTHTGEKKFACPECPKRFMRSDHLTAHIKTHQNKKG
Procedure, shortened: as §1

[21] = molecular target: T12, ZFP SBS#805 (synthetic)
T12 chain: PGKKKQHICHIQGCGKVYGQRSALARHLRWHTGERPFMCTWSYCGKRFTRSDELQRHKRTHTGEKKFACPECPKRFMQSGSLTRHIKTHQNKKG
Procedure, shortened: as §1

[22] = molecular target: T13, ZFP SBS#775 (synthetic)
T13 chain: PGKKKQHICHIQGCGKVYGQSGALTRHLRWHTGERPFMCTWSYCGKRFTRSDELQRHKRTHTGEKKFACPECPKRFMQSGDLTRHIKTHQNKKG
Procedure, shortened: as §1

[23] = molecular target: ZFP SBS#773 (synthetic)
Procedure, shortened: as §1

[24] = molecular target: T14, ZFP SBS#774 (synthetic)
T14 chain: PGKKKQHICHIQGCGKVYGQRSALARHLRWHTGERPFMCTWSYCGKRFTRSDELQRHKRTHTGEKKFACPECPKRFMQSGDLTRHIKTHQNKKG
Procedure, shortened: as §1

[25] = molecular target: T15, ZFP SBS#840 (synthetic)
T15 chain: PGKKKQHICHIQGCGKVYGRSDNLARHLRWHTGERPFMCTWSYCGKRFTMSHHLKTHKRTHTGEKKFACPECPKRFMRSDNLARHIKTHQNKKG
Procedure, shortened: as §1

[26] = molecular target: T16, ZFP SBS#839 (synthetic)
T16 chain: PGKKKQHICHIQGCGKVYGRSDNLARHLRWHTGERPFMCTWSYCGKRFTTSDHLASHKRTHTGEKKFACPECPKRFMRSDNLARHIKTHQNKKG
Procedure, shortened: as §1

[27] = molecular target: T17, ZFP SBS#841 (synthetic)
T17 chain: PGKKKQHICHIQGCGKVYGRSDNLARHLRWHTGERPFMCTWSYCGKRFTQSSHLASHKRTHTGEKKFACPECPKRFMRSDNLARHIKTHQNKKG
Procedure, shortened: as §1

[28] = molecular target: ZFP SBS#830 (synthetic)
Procedure, shortened: as §1

[29] = molecular target: ZFP SBS#831 (synthetic)
Procedure, shortened: as §1

[30] = molecular target: T18, ZFP SBS#766 (synthetic)
T18 chain: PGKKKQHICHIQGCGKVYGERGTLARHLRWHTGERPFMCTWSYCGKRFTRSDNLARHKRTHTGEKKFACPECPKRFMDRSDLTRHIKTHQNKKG
Procedure, shortened: as §1

[31] = molecular target: T19, ZFP SBS#765 (synthetic)
T19 chain: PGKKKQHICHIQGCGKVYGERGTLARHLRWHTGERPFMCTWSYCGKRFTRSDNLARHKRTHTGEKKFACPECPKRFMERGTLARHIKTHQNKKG
Procedure, shortened: as §1

[32] = molecular target: ZFP SBS#685 (synthetic)
Procedure, shortened: as §1

[33] = molecular target: T20, ZFP SBS#683 (synthetic)
T20 chain: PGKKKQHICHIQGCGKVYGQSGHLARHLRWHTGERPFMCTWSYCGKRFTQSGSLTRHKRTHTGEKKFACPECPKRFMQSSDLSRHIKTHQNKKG
Procedure, shortened: as §1

[34] = molecular target: ZFP SBS#684 (synthetic)
Procedure, shortened: as §1

[35] = molecular target: ZFP SBS#682 (synthetic)
Procedure, shortened: as §1

[36] = molecular target: ZFP SBS#681 (synthetic)
Procedure, shortened: as §1

Chain of ZFP SBS#798 (P08047 other isoform, or with tags, fused parts or gaps): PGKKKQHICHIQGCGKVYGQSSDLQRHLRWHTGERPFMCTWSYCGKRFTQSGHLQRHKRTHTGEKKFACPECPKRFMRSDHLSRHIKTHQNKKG
Chain of ZFP SBS#684 (synthetic) (chain, as listed by the source): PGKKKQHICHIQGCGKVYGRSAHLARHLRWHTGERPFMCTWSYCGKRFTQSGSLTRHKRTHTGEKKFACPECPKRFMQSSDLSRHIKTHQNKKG
Chain of ZFP SBS#685 (synthetic) (chain, as listed by the source): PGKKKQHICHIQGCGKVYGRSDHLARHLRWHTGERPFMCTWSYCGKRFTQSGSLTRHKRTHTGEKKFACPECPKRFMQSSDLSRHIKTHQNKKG
Chain of ZFP SBS#830 (synthetic) (chain, as listed by the source): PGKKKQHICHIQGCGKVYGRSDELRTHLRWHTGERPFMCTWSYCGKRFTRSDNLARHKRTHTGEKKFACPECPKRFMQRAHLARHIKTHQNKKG
Chain of ZFP SBS#767 (P08047 other isoform, or with tags, fused parts or gaps): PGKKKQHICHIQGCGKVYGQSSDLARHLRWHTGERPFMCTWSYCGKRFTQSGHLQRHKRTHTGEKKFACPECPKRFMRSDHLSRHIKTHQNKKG
Chain of ZFP SBS#831 (synthetic) (chain, as listed by the source): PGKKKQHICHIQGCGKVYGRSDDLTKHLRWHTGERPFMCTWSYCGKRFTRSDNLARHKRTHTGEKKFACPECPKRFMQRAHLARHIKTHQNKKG
Chain of ZFP SBS#844 (synthetic) (chain, as listed by the source): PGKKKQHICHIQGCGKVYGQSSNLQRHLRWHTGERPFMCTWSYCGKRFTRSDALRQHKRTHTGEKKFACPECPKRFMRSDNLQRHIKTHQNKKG
Chain of ZFP SBS#768 (synthetic) (chain, as listed by the source): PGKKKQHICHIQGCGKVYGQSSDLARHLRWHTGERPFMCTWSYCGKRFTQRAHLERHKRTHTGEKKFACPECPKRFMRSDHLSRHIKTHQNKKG
Chain of ZFP SBS#681 (synthetic) (chain, as listed by the source): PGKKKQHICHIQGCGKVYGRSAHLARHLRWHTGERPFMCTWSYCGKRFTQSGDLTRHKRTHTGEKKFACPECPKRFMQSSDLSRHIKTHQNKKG
Chain of ZFP SBS#845 (synthetic) (chain, as listed by the source): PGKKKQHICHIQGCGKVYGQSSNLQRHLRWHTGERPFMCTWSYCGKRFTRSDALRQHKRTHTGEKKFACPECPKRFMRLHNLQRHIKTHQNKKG
Chain of ZFP SBS#763 (synthetic) (chain, as listed by the source): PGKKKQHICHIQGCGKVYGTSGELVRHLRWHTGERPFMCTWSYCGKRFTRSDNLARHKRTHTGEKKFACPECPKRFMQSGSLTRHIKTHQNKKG
Chain of ZFP SBS#799 (synthetic) (chain, as listed by the source): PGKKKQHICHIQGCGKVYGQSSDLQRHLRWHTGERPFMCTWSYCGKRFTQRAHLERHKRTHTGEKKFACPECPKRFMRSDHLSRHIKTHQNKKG

B1: GCAGAGGCTC (dsDNA)
DNA 1: GCAGAGGCTC
DNA 2: GAGCCTCTGC
Work on B1 yielded a Kd [1] of 0.275 µM.

B2: GGATGGGGG (dsDNA)
DNA 1: GGATGGGGG
DNA 2: CCCCCATCC
With B2 the Kd [2] was 0.00075 µM.

B3: GCAGAGGCTG (dsDNA)
DNA 1: GCAGAGGCTG
DNA 2: CAGCCTCTGC
Binder B3 has a Kd [3] of 0.0175 µM and a Kd [4] of 0.255 µM.

B4: GGGGGAGCTG (dsDNA)
DNA 1: GGGGGAGCTG
DNA 2: CAGCTCCCCC
B4 showed a Kd [5] of 0.00185 µM, a Kd [6] of 2 µM and a Kd [7] of 0.003 µM. For the same binder, the Kd [8] was 0.335 µM.

B5: TTGGCAGCCT (dsDNA)
DNA 1: TTGGCAGCCT
DNA 2: AGGCTGCCAA
B5 gave a Kd [9] of 0.4 µM and a Kd [10] of 0.325 µM.

B6: GAGATGGATC (dsDNA)
DNA 1: GAGATGGATC
DNA 2: GATCCATCTC
B6 was tested, and the Kd [11] was 0.074 µM, the Kd [12] was 0.113 µM and the Kd [13] was 0.444 µM. For the same binder, the Kd [14] was 0.89 µM.

B7: GACTAGGACC (dsDNA)
DNA 1: GACTAGGACC
DNA 2: GGTCCTAGTC
B7 gave a Kd [15] of 0.408 µM, a Kd [16] of 0.136 µM and a Kd [17] of 0.186 µM.

B8: GGGGCCCTGG (dsDNA)
DNA 1: GGGGCCCTGG
DNA 2: CCAGGGCCCC
B8 gave a Kd [18] of 0.0291 µM, a Kd [19] of 0.222 µM and a Kd [20] of 0.3 µM.

B9: GCAGCGGTAG (dsDNA)
DNA 1: GCAGCGGTAG
DNA 2: CTACCGCTGC
With B9 the Kd [21] was 0.5 µM, the Kd [22] was 0.265 µM and the Kd [23] was 1.25 µM. It also gave a Kd [24] of 0.258 µM.

B10: GAGTGTGAGG (dsDNA)
DNA 1: GAGTGTGAGG
DNA 2: CCTCACACTC
Work on B10 yielded a Kd [25] of 0.625 µM, a Kd [26] of 0.625 µM and a Kd [27] of 0.3 µM.

B11: GGAGAGTCGG (dsDNA)
DNA 1: GGAGAGTCGG
DNA 2: CCGACTCTCC
In the case of B11, the Kd [28] is reported as 0.683 µM and the Kd [29] is reported as 0.7 µM.

B12: GCCGAGGCCG (dsDNA)
DNA 1: GCCGAGGCCG
DNA 2: CGGCCTCGGC
B12 showed a Kd [30] of 0.263 µM and a Kd [31] of 0.263 µM.

B13: GCTGCAGGAG (dsDNA)
DNA 1: GCTGCAGGAG
DNA 2: CTCCTGCAGC
Binder B13 has a Kd [32] of 0.15 µM, a Kd [33] of 0.5 µM and a Kd [34] of 0.85 µM. It also gave a Kd [35] of 0.09 µM and a Kd [36] of 3 µM.

From patent US20030068675, “Position dependent recognition of GNN nucleotide triplets by zinc fingers” (published 2003)
